Experimental data taken from the nanobody polyreactivity screen of Harvey et al. (2022).

Assay: yeast display, Sf9 membrane polyspecificity reagent, FACS + sequencing; frameworks hold sequencing errors
Procedure, shortened: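 A nanobody's polyreactivity label depends on the gate it was sorted from. Yeast display cells were stained with 10% biotinylated, detergent-solubilized Sf9 membrane reagent for 1 hour at 4 °C, enriched on streptavidin microbeads and sorted by FACS. The low and high (top ~1%) gates were set on anti-HA fluorescence for expression and streptavidin fluorescence for reagent binding.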

Row | Sequence | polyreactivity (PSR sort gate)
1 | QVQLVESGGALVQAGGSLRLSCAASGSIFSSYAMGWYRQAPGKERELVAAISGSGDSTYYADSVKGRFTISRDNAKNTVYLQMNSLKPEDTAVYYCNAVYAFNGYDYWGQGTQVTVSS | low polyreactivity
2 | QVQHVESVGGLVQAGGSLRLSCAASGSTFGYYAMGWYRQAPGKERELVATISATGGSTYYADSVKGRFTISRDNAKNTVYLQMNSLKPEDTAVYYCNAEYDRGNEYDYWGQGTQVTVSS | low polyreactivity
3 | QVQLVESGGGLVQAGCSLRISSAASGRIFAVKAMGWYRQAPGKDRELVAAITNVGSTNYADSVKGRFTISRDNAKNTVYLQMNSLKPEDTAVYYCNADLAQEDWKMDYWGQGTQVTVSS | low polyreactivity
4 | QVQLVESVGGLVQAGGSLRLSCAASGSIFYPNAMGLYRQAPGKERELVAAISSSGGTNYADSVKGRFTISRDNAKNTVYLQMNSLKPEDTAVYYCNARDKVRYRYSRMDYWGQGTQVTVSS | low polyreactivity
5 | QVQLEESGGGLVQAGGSLRLSCAASGIIFKLYAMGWYRQAPGKERELVAAITYRGGTTYYADSVKGRFTISRDNAKNTDYLQMNSLKPEDTAVYYCAVAVTSYSSKKLYYWGQGTQVTVSS | low polyreactivity
6 | QVQLVESGGGLVQAGGSLRLSCAASGSIFDRYAMGWYRQAPGKERELVAAISTGGSTNYADSVKGRFTISRDNAKNTVYLQMNSLKPEDTAVYYCAAERYWVFHGTISYKYDYWGQGTQVTVSS | low polyreactivity
7 | QVQLVESGGGLVQAGGSLRLSCAASGYTFRFNAMGWYRQAPGKERELVARISKSGGSTYYADSVKGRFTISRDNAKNTVYLQMNSLKPEDTAVYYCAAKDYVWGQGTQVTVSS | low polyreactivity
8 | QVQLVESGGGLVQAGGSLRLSCAASGSTFVGYAMGWYRQAPGKERELVAGITASGTNTYYADSVKGRFTISRDNAKNTVYLQMNSLKPEDTAVYYCAAESNRRFEGEYWGQGTQVTVSS | high polyreactivity
9 | QVQLVESGGGLVQAGGSLRLSCAASGIIFRRYAMGWYSQAPVKERELVAAITGSGGSPYYADSVKGRFTISRDNAKNTVYLQMNSLKPEDTAVYYCAAQSVLRFASSRYNSWGQGTQVTVSS | high polyreactivity
10 | QVQLVESGGGLVQAGGSLRLSCAASGLTFQSYDMGWYRQAPGKERELVAAISRRGGSTYYADSVKGRFTISRDNAKNTVYLQMNSLKPEDTAVYYCAAEYRSWSWRMDYWGQGTQVTVSS | high polyreactivity
11 | QVQLVESGGGLVQAGGSLRLSCAASGSILYTNAMGWYRQAPGKERELVAAITTSGASTYYADSVKGRFTISRDNAKNTVYLQMNSLKPEDTAVYYCAAPSRYRYYWGNYWGQGTQVTVSS | high polyreactivity
12 | QVHLVESGGGLVQAGGSLRLSCSASGSTFYAYAMGWYRQARGKERELVARIRWRGGRSYYADSVKGRFTISRDNAKNTVYLQMHSLKPEDTAVYYCAARLYGRYDSQDNYWGQGTQVTVSS | high polyreactivity
13 | QVQLVESGGGLVQAGGSLRLSCAASGSIFTYNAMGWYRQAPGKERELVAAITGDDITNYADSVKGRFTISRDNAKNTVYLQMNSLKPEYTAVYYCARDQWVFGSSPVQAGEYWGQGTQVTVSS | low polyreactivity
14 | QVQLLESGGGLVQAGGSLRLSCAPSGFTFLYYAMGWYIQAPGKERELVAVISRSGGRTYYADSVKGRFTISRDNAKNTVYLLMNSLKPEDTAVYYCAAALGVALNDYWGQGTQVNVSS | high polyreactivity
15 | QVQLVESRGGLVQAGGSLRLSCSASGITFNHYAMGWYRQAPGKERQLVAAITGSGGSTYYADSVKGRFTISRDNGKNTVYLQMNSLKPEDTAVYYCKTSPKLTYAVLYDYWGQGTQVTVSS | high polyreactivity
16 | QVQLVESGGGLVQAGGSLRLSCAASGFIFIFYAMGWYRQAPGKERELVAGISWSSSSTYYADSVKGRFTISRDNAKNTVYLLMNSLKPEDTAVYYFNAKHLPRHRDYWGQGTQVTVSS | low polyreactivity
